Laboratory results as given in patent publication US20190225691A1 (SHANGHAI HENLIUS BIOTECH, published 2019).
Where two headings read alike, the source gives them in different places.

Experiments:
[1] = target: T1, human PD-L1 on cells (PHA-activated human T cells); PD-L1-transfected CHO-S cells; A375 melanoma cells; … (human, UniProt Q9NZQ7 19-290); test: flow cytometry blocking assay: PD-L1 expressing CHO-S cells incubated with antibody, then biotin-labeled PD-1-Fc and streptavidin-PE; MFI of bound PD-1
T1 construct: whole, on cells; also called PD-L1 expressing T cells; PD-L1 expressing CHO-S cells
T1 sequence (Q9NZQ7 19-290): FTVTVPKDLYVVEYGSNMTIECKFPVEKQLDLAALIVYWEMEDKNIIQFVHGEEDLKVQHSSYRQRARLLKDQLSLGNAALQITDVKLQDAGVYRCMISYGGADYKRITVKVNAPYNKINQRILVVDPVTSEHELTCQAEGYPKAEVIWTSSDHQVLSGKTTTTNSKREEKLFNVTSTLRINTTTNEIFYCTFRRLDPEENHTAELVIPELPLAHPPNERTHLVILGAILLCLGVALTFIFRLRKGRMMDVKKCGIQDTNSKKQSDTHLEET
Procedure: PD-L1 expressing CHO-S cells were suspended in FACS buffer (PBS with 4% FBS). Various concentrations of tested antibodies were added to the cell suspension (3.5E5 cells/well) and incubated at 4° C. for 30 minutes. […] The cells were washed and then stained with streptavidin-PE at 4° C. for 30 minutes. Flow cytometric analyses were performed using the Cytomics FC 500 (Beckman Coulter Inc.).
Anti-PD-L1 reference antibody and Avastin were used as the positive and negative control, respectively.

[2] = target: T1, human PD-L1 on cells (PHA-activated …); test: flow cytometry on PHA-activated human CD3+ T cells, FITC-labeled anti-human IgG Fcγ, MFI
Procedure: Human T cells were isolated from PBMC using MagniSortTM Human T Cell Enrichment Kit (eBioscience). Isolated T cells were activated by 5 μg/mL phytohemagglutinin (PHA) for 3 days to stimulate the PD-L1 expression. Activated T cells were collected and incubated in FACS buffer (PBS with 2% FBS) with human Fc blocker (eBioscience) for 20 minutes at 4° C. Binding of anti-PD-L1 monoclonal antibody was assessed by incubating the activated T cells with the serial-diluted antibodies in FACS buffer. The cells were washed with flow buffer and the binding was detected with a FITC-labeled rabbit anti-human IgG FcγAb. Cells were also stained with mouse anti-human CD3 PE-Cy7 (eBioscience) for gating CD3-positive T cells. Flow cytometric analyses were performed using the Cytomics FC 500 (Beckman Coulter Inc.).

[3] = target: T2, recombinant human PD-L1/Fc fusion protein (human, UniProt Q9NZQ7 19-238); test: ELISA: human PD-L1/Fc coated (15 ng/well), serially diluted antibody, HRP-conjugated secondary antibody, TMB, A450
T2 construct: also called hPD-L1 ECD-Fc; not shown: Fc part
T2 sequence (Q9NZQ7 19-238 limits assumed): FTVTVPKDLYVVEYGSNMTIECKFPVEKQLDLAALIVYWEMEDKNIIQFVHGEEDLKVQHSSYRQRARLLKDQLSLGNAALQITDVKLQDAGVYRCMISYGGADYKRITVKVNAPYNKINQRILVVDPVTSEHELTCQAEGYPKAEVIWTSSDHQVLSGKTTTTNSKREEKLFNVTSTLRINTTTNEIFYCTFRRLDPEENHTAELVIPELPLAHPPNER
Procedure: ELISA assays were performed to assess the binding of selected antibodies to recombinant human PD-L1/Fc fusion proteins. Fifteen nanograms per well of human PD-L1/Fc proteins were coated on 96-well EIA microplate overnight at 4° C. After blocking with 5% skim milk, serially diluted antibodies were added and incubated at RT for 1 hour. The unbound antibodies were removed and wells were washed with PBST twice. The HRP-conjugated secondary antibody was added to the wells, and, following an incubation, excess secondary antibody was washed away. TMB was added to the wells, and following incubation, the reaction was stopped, and HRP activity was measured by monitoring the increase in absorbance at 450 nm.

human PD-L1 ECD-His [4] = target: T3, human PD-L1 ECD-His (human, UniProt Q9NZQ7 19-238); test: SPR, 25 C, antibody captured by anti-human IgG Fc, hPD-L1_ECD-His analyte, 1:1 fit
T3 construct: extracellular domain; Analyte in all SPR and BLI runs; also called hPD-L1_ECD-His; hPD-L1 ECD-His; not shown: His tag
T3 sequence (Q9NZQ7 19-238): as the sequence (Q9NZQ7 19-238 limits assumed) above
Procedure: Experiments were carried out at 25° C., and measurements were made with serial dilutions of hPD-L1_ECD-His from 55.4 nM to 11.1 nM passing over the captured antibodies in HBS-P+ buffer supplemented with 0.1% (w/v) BSA with a flow rate of […]. All data were analyzed with the evaluation software and curves were fit with a 1:1 Langmuir binding model. Data are representative of two independent experiments performed in duplicate.

human PD-L1 ECD-His [5] = target: T3, human PD-L1 ECD-His; test: SPR, ratio of KD to ref-1
Procedure: (§1) The binding affinity and kinetics were measured using surface plasmon resonance (SPR). […] Experiments were carried out at 25° C., and measurements were made with serial dilutions of hPD-L1-His from 19.1 nM to 0.71 nM passing over the captured antibodies in HBS-P+buffer supplemented with 0.1% (w/v) BSA with a flow rate of 25 μL/min. All data were analyzed with the evaluation software and curves were fit with a 1:1 Langmuir binding model. All the data are representative of two independent studies performed in duplicate.

human PD-L1 ECD-His [6] = target: T3, human PD-L1 ECD-His; test: SPR, 25 C, antibody captured by anti-human IgG Fc, hPD-L1-His analyte, 1:1 fit
Procedure: as §1

human PD-L1 ECD-His [7] = target: T3, human PD-L1 ECD-His; test: SPR, hPD-L1-His, comparison of IgG isotypes of PL2#3
human PD-L1 ECD-His [8] = target: T3, human PD-L1 ECD-His; test: SPR, ratio of KD to ref-1; remark: listed apart in the source

Binder | IC50 (read off the curve) [1] | EC50 (read off the curve) [2] | EC50 (read off the curve) [3] | Kd (human PD-L1 ECD-His [4]) | koff (human PD-L1 ECD-His [4]) | kon (human PD-L1 ECD-His [4]) | Improvement over ref-1 (human PD-L1 ECD-His [5]) | Kd (human PD-L1 ECD-His [6]) | koff (human PD-L1 ECD-His [6]) | kon (human PD-L1 ECD-His [6]) | Kd (human PD-L1 ECD-His [7]) | koff (human PD-L1 ECD-His [7]) | kon (human PD-L1 ECD-His [7]) | Improvement over ref-1 (human PD-L1 ECD-His [8])
PL1 (full-length, N297A mutant human IgG1) (antibody, V domains shown) VH: QIQLVQSGAEVKKPGSSVKVSCKASGGTFSSYAISWVRQAPGQGLEWMGRIIPILGIANYAQKFQGRVTITAGESTSTAYMELSSLRSEDTAVYYCAREGSSGWLGVLDYWGQGTLVTVSS VL: QAVLTQPSSVSGAPGQRVTISCTGSSSNVGAGYDVHWYQQLPGTAPKLLIYGNSNRPSGVPDRFSGSKSGTSASLAITGLQAEDEADYYCQSYDSSLSGWVFGGGTKLTVLG | ~0.02 mg/L |  | ~0.004 mg/L | 15.8 nM | 0.00453 s⁻¹ | 291000 M⁻¹ s⁻¹ |  |  |  |  |  |  |  | 
PL2 (full-length, N297A mutant human IgG1) (antibody, V domains shown) VH: EVQLVQSGGGLVKPGGSLRLSCAASGFTFSSYTMNWVRQAPGKGLEWVSSISSGSDYLYYADSVKGRFTISRDNAKNSLYLQMNSLRAEDTAVYYCARNELRWYPQAGAFDIWGQGTMVTVSS VL: QSVVTQPPSMSAAPGQNVTISCSGSSSYIESSYVSWYQQLPGTAPRLLIYDDDMRPSGIPDRFSGSKSGTSATLAITGLQTGDEADYYCEIWDSGLGGVFGGGTKLTVLS | ~0.05 mg/L | ~0.005 mg/L | ~0.009 mg/L | 8.72 nM | 0.0039 s⁻¹ | 438000 M⁻¹ s⁻¹ |  |  |  |  |  |  |  | 
PL2 IgG2 (antibody, V domains shown) VH: EVQLVQSGGGLVKPGGSLRLSCAASGFTFSSYTMNWVRQAPGKGLEWVSSISSGSDYLYYADSVKGRFTISRDNAKNSLYLQMNSLRAEDTAVYYCARNELRWYPQAGAFDIWGQGTMVTVSS VL: QSVVTQPPSMSAAPGQNVTISCSGSSSYIESSYVSWYQQLPGTAPRLLIYDDDMRPSGIPDRFSGSKSGTSATLAITGLQTGDEADYYCEIWDSGLGGVFGGGTKLTVL |  |  |  |  |  |  | 1.21 fold | 6.96 nM | 0.00217 s⁻¹ | 747000 M⁻¹ s⁻¹ |  |  |  | 
PL2 IgG1 (antibody, V domains shown) VH: EVQLVQSGGGLVKPGGSLRLSCAASGFTFSSYTMNWVRQAPGKGLEWVSSISSGSDYLYYADSVKGRFTISRDNAKNSLYLQMNSLRAEDTAVYYCARNELRWYPQAGAFDIWGQGTMVTVSS VL: QSVVTQPPSMSAAPGQNVTISCSGSSSYIESSYVSWYQQLPGTAPRLLIYDDDMRPSGIPDRFSGSKSGTSATLAITGLQTGDEADYYCEIWDSGLGGVFGGGTKLTVL |  |  |  |  |  |  |  |  |  |  | 1.56 nM | 0.00193 s⁻¹ | 1.25e+06 M⁻¹ s⁻¹ | 0.41 fold
PL2#3 IgG1 (antibody, V domains shown, Human IgG1) VH: EVQLVQSGGGLVKPGGSLRLSCAASGFTFSSYTMNWVRQAPGKGLEWVSSISSGSDYLYYADSVKGRFTISRDNAKNSLYLQMNSLRAEDTAVYYCARNELRWYPQAGAFDRWGQGTMVTVSS VL: QSVVTQPPSMSAAPGQRVTISCSGSSSYIESSYVGWYQQLPGTAPRLLIYDDDMRPSGIPDRFSGSKSGTSATLAITGLQTGDEADYYCEIWRSGLGGVFGGGTKLTVL |  |  |  |  |  |  |  |  |  |  | 0.25 nM | 0.000276 s⁻¹ | 1.14e+06 M⁻¹ s⁻¹ | 2.53 fold

More lines, now with the values ahead:

IC50 (read off the curve) [1] | EC50 (read off the curve) [2] | EC50 (read off the curve) [3] | Kd (human PD-L1 ECD-His [4]) | koff (human PD-L1 ECD-His [4]) | kon (human PD-L1 ECD-His [4]) | Improvement over ref-1 (human PD-L1 ECD-His [5]) | Kd (human PD-L1 ECD-His [6]) | koff (human PD-L1 ECD-His [6]) | kon (human PD-L1 ECD-His [6]) | Kd (human PD-L1 ECD-His [7]) | koff (human PD-L1 ECD-His [7]) | kon (human PD-L1 ECD-His [7]) | Improvement over ref-1 (human PD-L1 ECD-His [8]) | Binder
~0.2 mg/L | ~0.03 mg/L | ~0.03 mg/L | 6.68 nM | 0.00267 s⁻¹ | 416000 M⁻¹ s⁻¹ |  |  |  |  |  |  |  |  | PL12 (full-length, N297A mutant human IgG1) (antibody, V domains shown) VH: QVQLVQSGAEVKKPGSSVKVSCKASGGTFSSYAISWVRQAPGQGLEWMGRIIPILGIANYAQKFQGRVTITADKSTSTAYMELSSLRSEDTAVYYCARGIGSYSFGAFDIWGQGTMVTVSS VL: QSVLTQPPSVSGAPGQRVTISCTRSSSNIGAGHDVHWYQQLPGTAPKLLIYGNSNRPSGVPDRFSGSKSGTSASLAITGLQAEDGADYYCQSYDSSLTGVVFGGGTKLTVLG
~0.1 mg/L | ~0.04 mg/L | ~0.02 mg/L | 11.9 nM | 0.0041 s⁻¹ | 348000 M⁻¹ s⁻¹ |  |  |  |  |  |  |  |  | PL3 (full-length, N297A mutant human IgG1) (antibody, V domains shown) VH: QVQLVQSGAEVKKPGSSVKVSCKASGGTFSSYTISWVRQAPGQGLEWMGRIIPILGIANYAQKFQGRVTITADKSTSTAYMELSSLRSEDTAVYYCARSRDGYSFGAFDIWGQGTLVTVSS VL: QSVVTQPPPVSGAPGQRVTISCTGSSSNIGAGYDVHWYQQLPGTAPKLLIYGNSNRPSGVPDRFSGSKSGTSASLAITGLQAEDEADYYCQSYDSSLSAPVVFGGGTKLTVLG
 |  |  |  |  |  | 10.8 fold | 0.779 nM | 0.00143 s⁻¹ | 2.04e+06 M⁻¹ s⁻¹ |  |  |  |  | PL2#39 IgG2 (antibody, V domains shown, Human IgG2 backbone) VH: EVQLVQSGGGLVKPGGSLRLSCAASGFTFSSYTMNWVRQAPGKGLEWVSSISSGSDYLYYADSVKGRFTISRDNAKNSLYLQMNSLRAEDTAVYYCARNELRWYPKAGAFDIWGQGTMVTVSS VL: QSVVTQPPSMSAAPGQRVTISCSGSSSYITSSYVSWYQQLPGTAPRLLIYDDDMRPSGIPDRFSGSKSGTSATLAITGLQTGDEADYYCKIWDSGLGGVFGGGTKLTVL
 |  |  |  |  |  |  |  |  |  | 0.239 nM | 0.000293 s⁻¹ | 1.26e+06 M⁻¹ s⁻¹ | 2.64 fold | PL2#3 IgG4 (antibody, V domains shown, Human IgG4) VH: EVQLVQSGGGLVKPGGSLRLSCAASGFTFSSYTMNWVRQAPGKGLEWVSSISSGSDYLYYADSVKGRFTISRDNAKNSLYLQMNSLRAEDTAVYYCARNELRWYPQAGAFDRWGQGTMVTVSS VL: QSVVTQPPSMSAAPGQRVTISCSGSSSYIESSYVGWYQQLPGTAPRLLIYDDDMRPSGIPDRFSGSKSGTSATLAITGLQTGDEADYYCEIWRSGLGGVFGGGTKLTVL
 |  |  |  |  |  | 6.62 fold | 1.27 nM | 0.00099 s⁻¹ | 882000 M⁻¹ s⁻¹ |  |  |  |  | PL2#4 IgG2 (antibody, V domains shown, Human IgG2 backbone) VH: EVQLVQSGGGLVKPGGSLRLSCAASGFTFSSYTMNWVRQAPGKGLEWVSSISSGSDYLYYADSVKGRFTISRDNAKNSLYLQMNSLRAEDTAVYYCARNELRWYPLAGAFDIWGQGTMVTVSS VL: QSVVTQPPSMSAAPGQRVTISCSGVSSYIESSYVSWYQQLPGTAPRLLIYDDDMRPSGIPDRFSGSKSGTSATLAITGLQTGDEADYYCKIWDSGLGGVFGGGTKLTVL
 |  |  |  |  |  | 2.74 fold | 3.07 nM | 0.00221 s⁻¹ | 812000 M⁻¹ s⁻¹ |  |  |  |  | PL2#5 IgG2 (antibody, V domains shown, Human IgG2 backbone) VH: EVQLVQSGGGLVKPGGSLRLSCAASGFTFSSYTMNWVRQAPGKGLEWVSSISSGSDYLYYADSVKGRFTISRDNAKNSLYLQMNSLRAEDTAVYYCARNELRWYPFAGAFDIWGQGTMVTVSS VL: QSVVTQPPSMSAAPGQRVTISCSGSSSYIESSYVSWYQQLPGTAPRLLIYDDDMRPSGIPDRFSGSKSGTSATLAITGLQTGDEADYYCEIWDSRLGGVFGGGTKLTVL
 |  |  |  |  |  | 16.3 fold | 0.516 nM | 0.000557 s⁻¹ | 1.32e+06 M⁻¹ s⁻¹ | 0.118 nM | 0.000162 s⁻¹ | 1.34e+06 M⁻¹ s⁻¹ | 5.36 fold | PL2#3 IgG2 (antibody, V domains shown, Human IgG2 backbone) VH: EVQLVQSGGGLVKPGGSLRLSCAASGFTFSSYTMNWVRQAPGKGLEWVSSISSGSDYLYYADSVKGRFTISRDNAKNSLYLQMNSLRAEDTAVYYCARNELRWYPQAGAFDRWGQGTMVTVSS VL: QSVVTQPPSMSAAPGQRVTISCSGSSSYIESSYVGWYQQLPGTAPRLLIYDDDMRPSGIPDRFSGSKSGTSATLAITGLQTGDEADYYCEIWRSGLGGVFGGGTKLTVL
